Results as given in patent publication US20090214663A1 (published 2009).

Target: T1, mCAT-1 receptor expressed on HEK 293 cells (stable cell line) (mouse, UniProt Q09143 1-622)
T1 construct: whole, on cells
Experiment: fluorescence microscopy, counting of green fluorescent Mo-NP bound per cell after 2.5 h at 37 C; 120 cells per cell line

T1 sequence (Q09143 whole entry): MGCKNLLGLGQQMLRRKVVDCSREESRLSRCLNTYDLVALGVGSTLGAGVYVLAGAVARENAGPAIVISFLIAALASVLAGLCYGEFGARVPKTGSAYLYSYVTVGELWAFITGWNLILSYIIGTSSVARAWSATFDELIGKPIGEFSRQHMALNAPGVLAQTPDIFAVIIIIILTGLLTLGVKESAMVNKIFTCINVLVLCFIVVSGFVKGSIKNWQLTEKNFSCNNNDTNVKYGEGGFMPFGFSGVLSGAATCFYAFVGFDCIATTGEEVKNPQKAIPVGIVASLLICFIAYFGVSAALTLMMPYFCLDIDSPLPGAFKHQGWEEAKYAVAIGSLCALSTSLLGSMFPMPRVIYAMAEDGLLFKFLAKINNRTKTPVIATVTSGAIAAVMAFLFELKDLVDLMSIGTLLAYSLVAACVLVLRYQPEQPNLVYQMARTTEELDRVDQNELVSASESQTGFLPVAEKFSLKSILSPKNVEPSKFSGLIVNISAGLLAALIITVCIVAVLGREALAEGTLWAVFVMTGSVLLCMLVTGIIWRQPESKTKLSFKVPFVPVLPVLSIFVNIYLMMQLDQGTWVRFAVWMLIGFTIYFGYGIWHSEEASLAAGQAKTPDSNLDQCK

B1: Moloney murine leukemia virus (Mo-MLV) envelope protein, in virus membranes coated onto 100 nm carboxylate-modified fluorescent nanoparticles (Mo-NP) (other)
chain: ASPGSSPHQVYNITWEVTNGDRETVWATSGNHPLWTWWPDLTPDLCMLAHHGPSYWGLEYQSPFSSPPGPPCCSGGSSPGCSRDCEEPLTSLTPRCNTAWNRLKLDQTTHKSNEGFYVCPGPHRPRESKSCGGPDSFYCAYWGCETTGRAYWKPSSSWDFITVNNNLTSDQAVQVCKDNKWCNPLVIRFTDAGRRVTSWTTGHYWGLRLYVSGQDPGLTFGIRLRYQNLGPRVPIGPNPVLADQQPLSKPKPVKSPSVTKPPSGTPLSPTQLPPAGTENRLLNLVDGAYQALNLTSPDKTQECWLCLVAGPPYYEGVAVLGTYSNHTSAPANCSVASQHKLTLSEVTGQGLCIGAVPKTHQALCNTTQTSSRGSYYLVAPTGTMWACSTGLTPCISTTILNLTTDYCVLVELWPRVTYHSPSYVYGLFERSNRHKREPVSLTLALLLGGLTMGGIAAGIGTGTTALMATQQFQQLQAAVQDDLREVEKSISNLEKSLTSLSEVVLQNRRGLDLLFLKEGGLCAALKEECCFYADHTGLVRDSMAKLRERLNQRQKLFESTQGWFEGLFNRSPWFTTLISTIMGPLIVLLMILLFGPCILNRLVQFVKDRISVVQAL
notes: Native env in virus membranes released by osmotic shock and sonication, then extruded over nanoparticles; In the β-lactamase experiments the particle core also carried covalently coupled B. cereus penicillinase; also called Mo-nanoparticles; Mo env-coated nanoparticles
fold more Mo-NP bound than by cells lacking the receptor: 26 fold
